Article PMC6448480, “A Two-Way Proteome Microarray Strategy to Identify Novel Mycobacterium tuberculosis-Human Interactors” (Frontiers in Cellular and Infection Microbiology, 2019)

Molecular target: T1, myc-tagged SMAD2 (human, UniProt Q15796 1-467, labeled with Cy3)
T1 construct: SMAD2, human; also called SMAD2-myc; source: cloned into pCMV-C-myc vector, purified as previously reported (Li et al., 2013)
Experiment: peptide or protein array
Conditions: both partners purified

T1 sequence (Q15796 whole entry): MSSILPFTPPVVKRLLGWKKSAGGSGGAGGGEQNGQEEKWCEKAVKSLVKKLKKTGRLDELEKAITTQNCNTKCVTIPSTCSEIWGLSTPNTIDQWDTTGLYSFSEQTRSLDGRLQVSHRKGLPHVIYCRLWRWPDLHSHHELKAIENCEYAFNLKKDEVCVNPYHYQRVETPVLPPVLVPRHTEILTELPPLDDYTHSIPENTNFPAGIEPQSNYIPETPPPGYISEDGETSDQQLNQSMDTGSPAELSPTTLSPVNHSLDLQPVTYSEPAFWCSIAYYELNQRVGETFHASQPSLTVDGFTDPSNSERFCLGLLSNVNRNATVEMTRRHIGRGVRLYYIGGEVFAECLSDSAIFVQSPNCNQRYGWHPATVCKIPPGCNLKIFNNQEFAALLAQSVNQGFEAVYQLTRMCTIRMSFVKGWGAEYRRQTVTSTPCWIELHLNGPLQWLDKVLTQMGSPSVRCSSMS

B1: Rv0577 (Putative glyoxylase Cfp32) on the Mtb proteome microarray (natural protein)
chain: MPKRSEYRQGTPNWVDLQTTDQSAAKKFYTSLFGWGYDDNPVPGGGGVYSMATLNGEAVAAIAPMPPGAPEGMPPIWNTYIAVDDVDAVVDKVVPGGGQVMMPAFDIGDAGRMSFITDPTGAAVGLWQANRHIGATLVNETGTLIWNELLTDKPDLALAFYEAVVGLTHSSMEIAAGQNYRVLKAGDAEVGGCMEPPMPGVPNHWHVYFAVDDADATAAKAAAAGGQVIAEPADIPSVGRFAVLSDPQGAIFSVLKPAPQQ
  binding result: binds

B2: Rv3241c (Ribosome hibernation promotion factor, Hpf) on the Mtb proteome microarray (natural protein)
chain: MSRLAVDSGQVLAEPKSNAEIVFKGRNVEIPDHFRIYVSQKLARLERFDRTIYLFDVELDHERNRRQRKSCQRVEITARGRGPVVRGEACADSFYAALESAVVKLESRLRRGKDRRKVHYGDKTPVSLAEATAVVPAPENGFNTRPAEAHDHDGAVVEREPGRIVRTKEHPAKPMSVDDALYQMELVGHDFFLFYDKDTERPSVVYRRHAYDYGLIRLA
  binding result: binds
